From patent US20200207857A1

Key:
[1] = biological target: Recombinant protein Claudin 18.2; assay: ELISA-based assay on Claudin 18.2, y axis RLU; Kd table under the graph, no unit in the table, unit from the x axis log[antibody] nM
[2] = biological target: Recombinant protein Claudin 18.2; assay: ELISA on plate-coated recombinant Claudin 18.2, OD450; Kd table under the graph, no unit in the table, unit from the x axis log[antibody] nM
[3] = biological target: Recombinant protein Claudin 18.2; assay: as above; remark: listed apart in the source
[4] = biological target: Recombinant protein Claudin 18.2; assay: ELISA, recombinant Claudin 18.2 coated at 4.5 ug/mL (Example 67), OD450; Kd box under the graph without column head (the only rising curve is h5C9o_CLN18.2), no unit in the box, unit from the x axis log[antibody] nM
[5] = biological target: Recombinant protein Claudin 18.2; assay: ELISA as in Example 1, recombinant Claudin 18.2 coated on the plate, OD450, linear axis in ng/ml
[6] = biological target: Recombinant protein Claudin 18.2; assay: ELISA on plate-coated recombinant Claudin 18.2, OD370; Kd table under the graph, no unit in the table, unit from the x axis log[antibody] nM
[7] = biological target: human Claudin 18.1 (CLDN 18.1) expressed on HEK293 cells (human) (UniProt P56856); assay: flow cytometry, 293T-CLDN18.1 cells, FL1-A histogram, gate P1; untransfected 293T: M1 0.1%
[8] = biological target: human Claudin 18.1 (CLDN 18.1) expressed on HEK293 cells (human) (UniProt P56856); assay: flow cytometry, 293T-CLDN18.1 cells, FL1-A histogram, gate P1; untransfected 293T: M1 0.0%
[9] = biological target: Recombinant protein Claudin 18.2; assay: binding study 'as in Example 1'; method not named (ELISA on recombinant Claudin 18.2 assumed)

Chain of Recombinant protein Claudin 18.2 (chain, as listed by the source limits assumed, form in doubt): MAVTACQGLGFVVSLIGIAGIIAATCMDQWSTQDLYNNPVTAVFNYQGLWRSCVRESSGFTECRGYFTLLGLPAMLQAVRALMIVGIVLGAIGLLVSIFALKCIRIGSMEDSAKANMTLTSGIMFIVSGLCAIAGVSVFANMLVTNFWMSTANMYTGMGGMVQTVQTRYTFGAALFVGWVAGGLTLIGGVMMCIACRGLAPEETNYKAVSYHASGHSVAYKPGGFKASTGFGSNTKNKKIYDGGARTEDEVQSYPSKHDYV
Chain of human Claudin 18.1 (CLDN 18.1) expressed on HEK293 cells (human) (P56856 whole entry): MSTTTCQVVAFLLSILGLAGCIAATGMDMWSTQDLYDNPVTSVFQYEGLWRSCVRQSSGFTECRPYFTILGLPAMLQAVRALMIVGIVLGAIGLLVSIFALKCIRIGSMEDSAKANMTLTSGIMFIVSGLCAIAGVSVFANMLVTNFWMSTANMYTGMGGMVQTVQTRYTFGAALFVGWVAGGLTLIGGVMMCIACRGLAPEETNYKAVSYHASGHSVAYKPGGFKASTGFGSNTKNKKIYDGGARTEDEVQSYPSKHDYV

Binder	EC50 (read off the curve) [5] [µg/mL]	Kd [6] [nM]	Kd [9] [nM]	also measured
Anti-CLDN 18.2-5C9o (humanized antibody h5C9o) (antibody, V domains shown) VH: EVQLVESGGGLVQPGGSLRLSCAVSGYTFSMNWVRQAPGKGLEWVAWINMYTGEPTYADDFKGRFTISRDDSKNTLYLQMNSLRAEDTAVYYCARLYNGNSLDYWGQGTLVTVSS VL: DIQMTQSPSSLSASVGDRVTITCKSSQSLLNSGNQKSYLTWYQQKPGKAPKLLIYWASTLESGVPSRFSGSGSGTDYTLTISSLQPEDFATYYCQNAYSFPFTFGQGTKVEIK				Kd [1]: 0.14 nM; Kd [2]: 0.0892 nM; Kd [3]: 0.128 nM; Kd [4]: 0.0873 nM
Anti-CLDN 18.2-15G11 (antibody, V domains shown) VH: VQLQESGGGLVQPGGSRKLSCAASGFSFSSFGMHWVRQAPEKGLEWVAFISSGSSPIYYADTVKGRFTVSRDNPKNTLFLQMTSLRSEDTAMYFCARNYYGNAMDYWGQGSSVTVSS VL: DIMMTQSPLSLTVTAGEKVTMNCKSSQSLLNGGNQKNYLAWYQQKPGQPPKLLIYWASTRESGVPARFTGSGSGTDFTLTINTVQAEDLAVYYCQNDYFYPLTFGTGTKLELK	0.06	0.0662		% of cells in gate M1 [7]: 0.7%
Anti-CLDN 18.2-5H1 (antibody, V domains shown) VH: VQLQESGAELVRPGTSVKVSCKASGYAFTNYLIEWIKQRPGQGLEWIGMINPGSGGTKYNEKFKGKASLTADKTSSTAYMQLSSLTSDDSAVYFCARGGFGNSFAYWGQGTLVTVSA VL: DIMMTQSPLSLTVTAGEKVTMTCKSSQSLLNSGNLKNYLTWYQQKPGQPPKLLTYWASTRESGVPTRFTGSGSATDFTLTISSVQAEDLAVYYCQNAYFYPYTFGGGTKLEIK			0.32	

The next lines start with results.

EC50 (read off the curve) [5] [µg/mL]	Kd [6] [nM]	Kd [9] [nM]	Binder	also measured
0.06	0.0536		Anti-CLDN 18.2-9A1 (antibody, V domains shown) VH: VQLQQSGAELVRPGTSVKVSCKASRYAFTNYLIEWVKQRPGQGLEWIGMINPGSGGTHYNEKFKVKATLTADKSSSTAYMQLSSLTSDDSAVYFCARGGFGNSFAYWGQGTLVTVSA VL: DILLTQSPLSLTVTAGEKVTMSCKSSQSLLNGGNLKNYLTWYQQKPGQPPKLLTYWASTRESGVPVRFTGSGSGTDFTLTISSVQAEDLAVYYCQNGYFYPYTFGGGTKLEIK	% of cells in gate M1 [8]: 1.3%
		0.267	Anti-CLDN 18.2-7H1 (antibody, V domains shown) VL: DIVLTQSPAILSVSPGEKVTMTCRASSSVSYMHWYQQKPGSSPKPWIYGTSNLASGVPARFSGSGSGTSYSLTISRVEAEDAATYYCQQWSSNPLTFGTGTKLELK V domain: KVQLQESGGGSVQPGGSLKLSCAASGFTFSSYSMSWVRQTPEKRLEWVAYISNLGGATYYPDTVKGRFTVSRDNARNSLYLQMTSLKSDDTAMYYCTRHNYGYDGFADWGQGTLATVSA	
